We go through four molecules from PMC7568260, “In vitro reconstitution and characterization of pyruvate dehydrogenase and 2‐oxoglutarate dehydrogenase hybrid complex from Corynebacterium glutamicum” (MicrobiologyOpen, 2020).

Series [1] has as its target CgE1o (thiamine diphosphate-dependent 2-oxoglutarate dehydrogenase, OdhA), C-terminal His-tagged (Corynebacterium glutamicum) (UniProt Q8NRC3). Briefly: SEC; HiLoad 26/600 Superdex 200 pg or Superose 6 10/300 GL column, TESG10N buffer; mixtures incubated on ice for 30 min before the run; masses estimated against size standards; fractions read by SDS-PAGE (CBB) or Western blot.

Series [2] deals with CgE2-E3 subcomplex (Corynebacterium glutamicum) (UniProt Q8NNJ2).
Series [3] concerns the target CgE1p (thiamine diphosphate-dependent pyruvate dehydrogenase, AceE), C-terminal His- and Flag-tagged (Corynebacterium glutamicum) (UniProt Q8NNF6). Briefly: SEC; HiLoad 26/600 Superdex 200 pg or Superose 6 10/300 GL column, TESG10N buffer; mixtures incubated on ice for 30 min before the run; masses estimated against size standards; fractions read by SDS-PAGE (CBB) or Western blot.

Substrate in series [4]: CC(=O)C(=O)O
Briefly: purified protein. It counts as biochemical, Corynebacterium glutamicum. The conditions noted are these: 0.2 mM CoA, 0.3 mM thiamine pyrophosphate, 3 mM L-cysteine, 5 mM MgCl2, 1 mM APAD+ (NAD+ analogue), TES-NaOH pH 7.6, 30 °C, CgE1p 15 μg with CgE2-E3 15 μg.

Substrate in series [5]: O=C(O)CCC(=O)C(=O)O
Briefly: purified protein. Type of series: biochemical, Corynebacterium glutamicum. The conditions noted are these: 0.2 mM CoA, 0.3 mM thiamine pyrophosphate, 3 mM L-cysteine, 5 mM MgCl2, 1 mM APAD+ (NAD+ analogue), TES-NaOH pH 7.6, 30 °C, CgE1o 20 μg with CgE2-E3 15 μg.

With “CgE1o (thiamine diphosphate-dependent 2-oxoglutarate dehydrogenase, OdhA), C-terminal His-tagged (from UniProt Q8NRC3 1-1221) (enzyme)”, in series [1], the stoichiometry N was 6.

In series [2], “CgE1p (thiamine diphosphate-dependent pyruvate dehydrogenase, AceE), C-terminal His- and Flag-tagged (from UniProt Q8NNF6 1-922) (enzyme)” displayed a PDH activity against the amount of CgE1p (37, 150, 300, 600 pmol) with a fixed amount of CgE2-E3 (18 pmol) of 150 pmol. The stoichiometry N in series [3] was 2.

B1: reconstituted PDH complex (CgE1p with CgE2‐E3) (Corynebacterium glutamicum ATCC 13032) (protein)
chain: MADQAKLGGKPSDDSNFAMIRDGVASYLNDSDPEETNEWMDSLDGLLQESSPERARYLMLRLLERASAKRVSLPPMTSTDYVNTIPTSMEPEFPGDEEMEKRYRRWIRWNAAIMVHRAQRPGIGVGGHISTYAGAAPLYEVGFNHFFRGKDHPGGGDQIFFQGHASPGMYARAFMEGRLSEDDLDGFRQEVSREQGGIPSYPHPHGMKDFWEFPTVSMGLGPMDAIYQARFNRYLENRGIKDTSDQHVWAFLGDGEMDEPESRGLIQQAALNNLDNLTFVVNCNLQRLDGPVRGNTKIIQELESFFRGAGWSVIKVVWGREWDELLEKDQDGALVEIMNNTSDGDYQTFKANDGAYVREHFFGRDPRTAKLVENMTDEEIWKLPRGGHDYRKVYAAYKRALETKDRPTVILAHTIKGYGLGHNFEGRNATHQMKKLTLDDLKLFRDKQGIPITDEQLEKDPYLPPYYHPGEDAPEIKYMKERRAALGGYLPERRENYDPIQVPPLDKLRSVRKGSGKQQIATTMATVRTFKELMRDKGLADRLVPIIPDEARTFGLDSWFPTLKIYNPHGQNYVPVDHDLMLSYREAPEGQILHEGINEAGSVASFIAAGTSYATHGKAMIPLYIFYSMFGFQRTGDSIWAAADQMARGFLLGATAGRTTLTGEGLQHMDGHSPVLASTNEGVETYDPSFAYEIAHLVHRGIDRMYGPGKGEDVIYYITIYNEPTPQPAEPEGLDVEGLHKGIYLYSRGEGTGHEANILASGVGMQWALKAASILEADYGVRANIYSATSWVNLARDGAARNKAQLRNPGADAGEAFVTTQLKQTSGPYVAVSDFSTDLPNQIREWVPGDYTVLGADGFGFSDTRPAARRFFNIDAESIVVAVLNSLAREGKIDVSVAAQAAEKFKLDDPTSVSVDPNAPEE
notes: CgE1p C-terminal His (and Flag) tag, pKH4, 102,826 Da, dimer in solution; CgE2 (70,905 Da, lipoylated) co-expressed with N-terminal His/Flag CgE3 (50,652 Da), pKH13; E. coli BL21-CodonPlus (DE3); tags not cut; gel-filtration purified; with Dihydrolipoamide acetyltransferase component of pyruvate dehydrogenase complex (E2); Dihydrolipoyl dehydrogenase (E3)
For B1, the Km in the series “purified protein [4]” turned out to be 3500 ± 200 µM.

B2: reconstituted ODH complex (CgE1o with CgE2‐E3) (Corynebacterium glutamicum ATCC 13032) (protein)
chain: SSASTFGQNAWLVDEMFQQFQKDPKSVDKEWRELFEAQGGPNTTPATTEAQPSAPKESAKPAPKAAPAAKAAPRVETKPADKTAPKAKESSVPQQPKLPEPGQTPIRGIFKSIAKNMDISLEIPTATSVRDMPARLMFENRAMVNDQLKRTRGGKISFTHIIGYAMVKAVMAHPDMNNSYDVIDGKPTLIVPEHINLGLAIDLPQKDGSRALVVAAIKETEKMNFSEFLAAYEDIVARSRKGKLTMDDYQGVTVSLTNPGGIGTRHSVPRLTKGQGTIIGVGSMDYPAEFQGASEDRLAELGVGKLVTITSTYDHRVIQGAVSGEFLRTMSRLLTDDSFWDEIFDAMNVPYTPMRWAQDVPNTGVDKNTRVMQLIEAYRSRGHLIADTNPLSWVQPGMPVPDHRDLDIETHNLTIWDLDRTFNVGGFGGKETMTLREVLSRLRAAYTLKVGSEYTHILDRDERTWLQDRLEAGMPKPTQAEQKYILQKLNAAEAFENFLQTKYVGQKRFSLEGAEALIPLMDSAIDTAAGQGLDEVVIGMPHRGRLNVLFNIVGKPLASIFNEFEGQMEQGQIGGSGDVKYHLGSEGQHLQMFGDGEIKVSLTANPSHLEAVNPVMEGIVRAKQDYLDKGVDGKTVVPLLLHGDAAFAGLGIVPETINLAKLRGYDVGGTIHIVVNNQIGFTTTPDSSRSMHYATDYAKAFGCPVFHVNGDDPEAVVWVGQLATEYRRRFGKDVFIDLVCYRLRGHNEADDPSMTQPKMYELITGRETVRAQYTEDLLGRGDLSNEDAEAVVRDFHDQMESVFNEVKEGGKKQAEAQTGITGSQKLPHGLETNISREELLELGQAFANTPEGFNYHPRVAPVAKKRVSSVTEGGIDWAWGELLAFGSLANSGRLVRLAGEDSRRGTFTQRHAVAIDPATAEEFNPLHELAQSKGNNGKFLVYNSALTEYAGMGFEYGYSVGNEDSIVAWEAQFGDFANGAQTIIDEYVSSGEAKWGQTSKLILLLPHGYEGQGPDHSSARIERFLQLCAEGSMTVAQPSTPANHFHLLRRHALSDLKRPLVIFTPKSMLRNKAAASAPEDFTEVTKFQSVINDPNVADAAKVKKVMLVSGKLYYELAKRKEKDGRDDIAIVRIEMLHPIPFNRISEALAGYPNAEEVLFVQDEPANQGPWPFYQEHLPELIPNMPKMRRVSRRAQSSTATGVAKVHQLEEKQLIDEAFEA
notes: CgE1o C-terminal His tag, pAA62, 134,664 Da, mainly hexamer alone; CgE2 (70,905 Da, lipoylated) co-expressed with N-terminal His/Flag CgE3 (50,652 Da), pKH13; E. coli BL21-CodonPlus (DE3); tags not cut; gel-filtration purified; complex about 940 kDa; with Dihydrolipoamide acetyltransferase component of pyruvate dehydrogenase complex (E2); Dihydrolipoyl dehydrogenase (E3)
In the case of B2, the Km in “purified protein [5]” stood at 10 ± 1 µM.

As usually defined, the stoichiometry N is the number of molecules, sites or subunits per partner or assembly. Usually Km stands for the substrate concentration at which the rate is half of its maximum.
